The results in this text go back to the nanobody polyreactivity screen of Harvey et al. (2022).

The nature of this data set: yeast display, Sf9 membrane polyspecificity reagent, FACS + sequencing; frameworks hold sequencing errors. The gist of the method: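 Using colony PCR, genes from sorted yeast display clones were amplified, then sequenced on MiSeq at 2 × 250 and filtered by CDR length. The clones had been stained with 10% biotinylated, detergent-solubilized Sf9 membrane reagent for 1 hour at 4 °C and sorted by FACS into low and high (top ~1%) gates on anti-HA and streptavidin fluorescence. Polyreactivity labels come from the gate of origin.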
In the case of “QVQLVESGGGLGQAGGSLRLSCAASGSIFERNAMGWYRQAPGKERELVAAISSSGVSTYYADSVKGRFTISRDNAKNTVYLQMNSLKPEDTAVYYCNAVWRLRVRYGYWGQGTQVTVSS”, the “polyreactivity (PSR sort gate)” value was “high polyreactivity”.
Take “QVQLVESGGGLVQAGGSLRLSCAASGSTLSLYAMGWSRQAPGKERELVAAITSSGGTYYADSVKGRFTISRDNAKNTVYLQMNSLKPEDTADYYCARSRYRAQGKFDYWGQGTQVTVSS”: the “polyreactivity (PSR sort gate)” value is recorded as “high polyreactivity”.
For “QVQLVESGGGLVQAGGSLRLSCAASGSTFGYYAMGWYIQAPGKERELVAAISWPGGSTYYADSVKGRFTISRDNAKNTVYLQMNSLKPEYTAVYYCAADTPYWQSSKYDYWGQGTQVSVSS”, the “polyreactivity (PSR sort gate)” value is reported as “high polyreactivity”.
Turning to “QVQLVESGGGLVQAGGSLRLSCAASGGTFDSNAMGWYRQAPGKERELVAAISSGGSTYYADSVKGRFTISRDNAKNTVYLQMNSLKPEDTAVYYCAADSSGGASAPMDYWGQGTQVTVSS”, the “polyreactivity (PSR sort gate)” value is “low polyreactivity”.
For the sequence “QVQLVESGGGLVQAGGSLRLSCAASGLTFIYYSMGWYRQAPGKERELVAAISVSGGSTYYADSVKGRFTISRDNAKNTVYLQMNSLKPEYTAVYYCAGDWFVHKPRYQYSFDYWGQGTQVTVSS”, the “polyreactivity (PSR sort gate)” value is “low polyreactivity”.
Regarding “QVQLVESVGGLVQAGGSLRLSCAASGRIFGYNDMGWYRQEPGKERELVAVISTSGTITYYADSVKGRFTISRDNAKNTVYLQMNSLKPEDTAVYNCAAGSYSRYLYSLYFDFDYWGQGTQVTVSS”, the “polyreactivity (PSR sort gate)” value is given as “low polyreactivity”.
The result for “QVQLVESGGGLDQAGGSLRLSCAASGSTFSRNAMGWYRQAPGKERELVAGISYIGGRTYYADSVKGRFTISRDNAKNTVYLQMNSLKPEDTAVYYCNVVPKSRDWQSYGSWGQGTQVTVSS” reads “high polyreactivity”.
The result for “QVQLVESGGGLVQAGGSLRLSCAASGSIFWSYAMGWYRQAPGKEREFVASITGSGGTTTYADSVKGRFTISRDNAKNTVYLQMNSLKPEDTAVYYCNARLHGWYHVYYIYDYWGQGTQVTVSS” reads “low polyreactivity”; that for “QVQLVESGGGLVQAGGSLRLSCAASGFNFVRYAMGWYRQAPRKERELVAAITRRGGSTHYADSVKGRFTISRDNAKNTVYLQMNSLKPEDTAVYYCGAGRQYYYLDRFPRVQGDYWGQATQVTVSS”, “high polyreactivity”.
Consider “QVQLVESGGGLDQAGGSLRLSCAASGIIFSSYAMGWYRQAPGKERELVAAISYSGGSTYYADSVKGRFTISRDNAKNTVYLQMNSLKPEDTAVYYCAAQGYSPGGYDYWGQGTQVTVSS”, for which the “polyreactivity (PSR sort gate)” value was “low polyreactivity”.
With “QVQLVESGGGLVQAGGSLRLSCAASGSTFATYTMGWYRQAPGKERELVAAISVSGSRTYYADSVKGRFTISRDNAKNTVYLQMNSLKPEDTAVYYCNADPPVKLYLYDYWGQGTQVTVSS”, the “polyreactivity (PSR sort gate)” value is given as “high polyreactivity”.
In the case of “QVQLVESGGGLVQAGGSLRLSCAASGFTFGTNAMGWYSQAPGKERELVAAISGRVGSTYYADSVKGRFTISRDNAKNTVYFLMNSLKPEDTAVYYCAADTWKTWSPYLYYTYDSWGQGTQVTVSS” it was “low polyreactivity”; in that of “QVQLVESGGGLLQAGGSLRLSCAASGGMFKYNAMGWYRQAPRKARELVPAINYSGGRTYYADSVKGRFTISRDNAKNTVYLQMTSLKPEDTAVDYCNALTRGHTGQPYTYDYWGQGTQVTVSS”, “high polyreactivity”; in that of “QVQLVESGGGLVQAGGSLRVSCAASGYTFKHYTMGWYREAPGKERELVATISIRGGNTSYADSVKGRFTISRDTAKNTVYLQMNSLKPEDTAVYYCAARSVNAPPRYRQKAGYDYWGQGTQETVSS”, “high polyreactivity”.
In the case of “QGQLVESGGALVQAGGSLRLSCAPSGRTFHGYAMGGYRQAPGKERELVARINWSDGRTYYADSVKGRFTISRDNAKNTVYLQMNSLKPEDTAVYYCAADKTVSYGPAWYYYWGQGTQVTVSS” it was “low polyreactivity”; in that of “QVQLVESGGGLVQAGGSLRLSCAASGSISVYNAMGWYRQAPGKERELVAAISWSGGRTSYADSVKGRFTISRDNAKNTVYLQMNSLKPEDTAVYYCAADELTVLWDEDYWGQGTQVTVSS”, “low polyreactivity”.
Turning to “QVQLVESGGGLVQAGGSLRLSCAASGSTFYSYAMGWYRQAPGKERELVAAITRGGSTYYADSVKGRFTISRDNAKNTVYLQMNSLKPEDTAVYYCAARPWTSASYDYWGQGTQVTVSS”, the “polyreactivity (PSR sort gate)” value is “low polyreactivity”.
In the case of “QVQLVESGGGLVQAGGSLRLSCAASGRIFYFNAMGWYRQAPGKERELVAAISGSGGDTYYADSVKGRFTISRDNAKNTVYLQMNSLNPEDTAVYYCAAEVYTWGQGTQVTVSS” it was “low polyreactivity”; in that of “QVQLVESGGGLVQAGGSLRLSCAASGITFEYYAMGWYRQAPGKERELVAAIDTGGSTNYADSVKGRFTISRDNAKNTVYLQMNSLKPEDTAVYYCTADGPSTPWVDYGYWGQGTQVTVSS”, “low polyreactivity”; in that of “QVQLEESGGGLVQAGGSLLLSCAASGLIFYHNAMGWYIQAPGKERELVAAITASGGSTYYADSVKGRFTISRDNANNTVYLQIISLKTEDTAVYYCAADGPLDSDLDYWRQGTQVTVSS”, “low polyreactivity”.
In the case of “QVQLVESCGGLVHAGCSLRLSCAASGSTFTFYAMGWYRQAPGKERVLVATISWSTGTTYYADSVKGRFTISRDSAKNTVYLEMNSMKPEDTAVYYCADAWSYRFDYWGQGTQVTVSS” it was “low polyreactivity”; in that of “QVQLVESGGGLVQAGGSLRLSCAASGGTFINYAMGWYRQAPGKERELVAGISQSGDSTYYADSVKGRFTISRDNAKNTVYLQMNSLKPEDTAVYYCNADAVAQQYDWWENYDYWGQGTQVTVSS”, “high polyreactivity”.
Turning to “QVQLVESGGGLVQAGGSLRLSCAASGSIFTLYAMGWYRQAPGKERELVAAITWTGGSTYYADSVKGRFTISRDNAKNTVYLQMNSLKPEDTAVYYCATDGYWQSNGAFYYVARHGGYWGQGTQVTVSS”, the “polyreactivity (PSR sort gate)” value is listed as “low polyreactivity”.
The result for “QVQLVESGGGLVQAGGSLRLSCATSGGIFDSYAMVWYRQAPGKERELVASISWSGGSTYYADSVKGRFTISRDNEKNTVYLQMKSLKPEVTAVYYCAADRPYAGRFWKGYHSALYDYWGQGTQVTVSS” reads “low polyreactivity”.
In the case of “QVHLVESAGGLLQAAASLRLSGDASGSIISSYAMGWYRQAPGKERQLVAAITRSGGSTYYADSVKGRFTISRDYAKKTVYLQMNSLNPEDTAVYYCAARSYVHVFVRMYYWGQGTQVTVSS” it was “high polyreactivity”; in that of “QVQLVESGGGLVQAGGSLRLSCAASGSTLRSYVMGWYRQAPGKERELVAAISIRGDSTYYADSVKGRFTISRDNAKNTVYLQMNSLKPEDTAVYYCAAASNRYPNSWYYYWGQGTQVTVSS”, “high polyreactivity”.
In the case of “QVQLVESGGGLVQAGGSLRLSCAASGRIFNPNGMGWYRQAPGKERELVAVITRSGTSTYADSVKGRFTISRDNAKNTVYLQMNSLKPEDTAVYYFATRYRWTPYDYWGQGTQVTVSS” it was “low polyreactivity”; in that of “QVQLVESGGGLVQAGGSLRLSCAASGSTIRYNAMGWYRQAPGKERELVAAISRSGGSTYYADSVKGRFTISRDNAKNTVYLQRTSLKTEDTAVYYCAADRGARGDYWGQGTQVTVSS”, “high polyreactivity”.
For the sequence “QVQLVESGGGLVQAGGSLRLSCAASGFTFKQNAMGWYRQAPGKERELVAAITRTGASTYYADSVKGRFTISRDNAKNTVYLQMNSLKPEDTAVYYCNAARRGSAYDYWGQGTQVTVSS”, the “polyreactivity (PSR sort gate)” value is recorded as “high polyreactivity”.
As to “QVQLVESGGGLVQAGGSLRLSCAASGRTFYDYAMGWYRQAPGKERELVADITSGGGNTYYADSVKGRFTISRDNAKNTVYLQMNSLKPEDTAVYYCNADYDLYFSGWYDYWGQGTQVTVSS”, the “polyreactivity (PSR sort gate)” value is reported as “low polyreactivity”.
Take “QVQLVESGGGLVQAGGSLRLSCAASGFIFHRYAMGWYRQAPGKERELVAAISSSGGSTYYADSVKGRFTISRDNAKNTVYLQMNSLKPEDTAVYYCAAEEEEFIYDYWGQGTQVTVSS”: the “polyreactivity (PSR sort gate)” value was “high polyreactivity”.
Take “QVQLVESGGGLVQAGGSLRLSCAASGFTFLYNTMGWYRQAPGKERELVAAISIRGGSTYYADSVKGRFTISRDNAKNTVYLQMNSLKPEETAVYYCAARTPPPSSRSRVYYWGLGTQVTVSS”: the “polyreactivity (PSR sort gate)” value is on record as “high polyreactivity”.
In the case of “QVQLVESGGGLVQAGGSLRLSCAASGRTFVVYAMGWYRQAPGKERELVAAITSSGNTYYADSVKGRFTISRDNAKNTVYLQMNSLKPEDTAVYYCAAYSLYGYDYWGQGTQVTVSS”, the “polyreactivity (PSR sort gate)” value was “low polyreactivity”.
In the case of “QVQHVESGGGLVQAGGSLRLSCAACGRTFTPYAMGWYLQEPGKDREFVAAIDTSGGSTYADSVNGRFTISRDNAKYTVYLQKNSLKPEDTAVYYCGTRGFYSWDYWYLWEYDYWGQGTQVTVSS” it was “low polyreactivity”; in that of “QVQLVESGGGLVQAGGSLRLSCAASGFTFSSNAMGWYRQAPGKERELVAAISFNSTSTYYADSVKGRFTISRDNAKNTVYIQMNSLKPEDTAVYYCAKESPPAEGDSGYDYWGQGTQVTVSS”, “low polyreactivity”; in that of “QVQLVESGGGLLQAGGSLRLSSAASGRTFPRYAMGWYRQAPGKERELVAAISVRAGITYYADSVKGRFTISRDNAKNTVYLQMNSLKPEDTAVYYCAKDHWTTSYDEGDYWGQGTQVTVSS”, “low polyreactivity”.
In the case of “QVQLVESGGGLVQAGGSLRLSCAASGLTFERYAMGWYRQAPGKERELVAAISIRGGSTYYADSVKGRFTISRDNAKNTVYLQMNSLKPEDTAVYYCNAESFSFYPSWHEYDYWGQGTQVTVSS” it was “low polyreactivity”; in that of “QVQLVESGGGLVQAGGSLRLSCAASGRTFYYNAMGWYRQAPGKERELVARISTIGGNTFYADSVKGRFTISRDNAKNTVYLQMNSLKPEDTAVYYCATTGGPSWRKYDYWGQGTQVTVSS”, “high polyreactivity”.
Take “QVQLVESGGGLVQAGGSLRLSCAASGRTFYLYAMGWYRQAPGKEREFVAAISKRGGSTYYADSVKGRFTISRDNAKNTVYLQMNSLKPEDTAVYYCAAEVFRYRLNQTPTYRGDYWGQGTQVTVSS”: the “polyreactivity (PSR sort gate)” value is given as “high polyreactivity”.
The result for “QVHLVESGGGLVKAGGSLGLSCSPSGSTLSFNAMGWYRQAPGKERELVAGITYSGGSTYYADSVKGRFTISRDNAKNTFYLLMNSLKPEDTAVYYCNKASGVYYGHLDYWGQGTQVTVSS” reads “low polyreactivity”.
